Reference: patent publication EP4631959A2, “NOVEL MINIGASTRIN-DERIVED CHOLECYSTOKININ 2 RECEPTOR BINDING MOLECULES FOR IMAGING AND TARGETED RADIOTHERAPY” (priority 2022, dated 2024)
Where two headings read alike, the source gives them in different places. Starred links: 1 amine or outer side, 2 acyl side, 3 side chain; linkers in the order of their positions; H or OH if unused. Non-standard residues stand in square brackets, D forms with d. Residues, ends and D or L forms follow the SMILES beside them. *: point of attachment. Benzoyl(4-SiFtBu2) = CC(C)(C)[Si](F)(c1ccc(C(=O)*)cc1)C(C)(C)C; X1 = CC(C)(C)[Si](F)(c1ccc(C[N+](C)(C)CC(=O)*)cc1)C(C)(C)C; DOTA = O=C(O)CN1CCN(CC(=O)O)CCN(CC(=O)*)CCN(CC(=O)O)CC1; d(γGlu) = O=C(O)[C@@H](CCC(=O)[*:2])N[*:1]; 1Nal = N[C@@H](Cc1cccc2ccccc12)C(=O)O; Hyp = O=C(O)[C@@H]1C[C@@H](O)CN1; dCit = NC(=O)NCCC[C@@H](N)C(=O)O; PEG5 = NCCOCCOCCOCCOCCOCCC(=O)O; NMeNle = CCCC[C@H](NC)C(=O)O; PEG4 = NCCOCCOCCOCCOCCC(=O)O; dDap = NC[C@@H](N)C(=O)O

Key:
CCK-2R [1] = target: T1, CCK-2R (Rattus norvegicus, UniProt P30553); experiment: Determination of IC50: CCK-2R affinity on AR4-2J cells, competition with [^177Lu]Lu-DOTA-PP-F11N; format: binding; details: AR4-2J cells
T1 construct: The CCK-2R expressing rat pancreatic tumor cells AR4-2J; host or cells: AR4-2J rat pancreatic tumor cells
T1 sequence (P30553 1-452): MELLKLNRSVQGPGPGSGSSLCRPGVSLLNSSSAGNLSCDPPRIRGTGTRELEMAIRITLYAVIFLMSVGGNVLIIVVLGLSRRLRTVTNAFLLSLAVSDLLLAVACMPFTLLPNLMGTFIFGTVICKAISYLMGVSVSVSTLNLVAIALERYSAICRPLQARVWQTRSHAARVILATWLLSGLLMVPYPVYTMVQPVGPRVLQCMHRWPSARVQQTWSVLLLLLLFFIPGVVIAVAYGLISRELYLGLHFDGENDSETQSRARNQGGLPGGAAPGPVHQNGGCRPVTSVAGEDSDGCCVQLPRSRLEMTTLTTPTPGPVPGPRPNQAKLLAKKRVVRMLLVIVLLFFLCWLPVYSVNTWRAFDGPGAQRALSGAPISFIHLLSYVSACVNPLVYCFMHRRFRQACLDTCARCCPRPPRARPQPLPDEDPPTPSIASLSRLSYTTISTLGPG
Outline: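 Competitive displacement of 0.3 pmol/well [177Lu]Lu-DOTA-PP-F11N by compounds (10^-10 to 10^-4 M) on AR4-2J cells in BSA-supplemented medium, 3 h at 37 °C. Free label was collected from medium plus PBS rinse, and cell-bound label was recovered with 1 M NaOH, both measured by γ-counter. Each IC50 was determined twice, in triplicate.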

[2] = target: T2, Human serum albumin (HSA) (Homo sapiens, UniProt P02768); experiment: Determination of HSA binding on a Chiralpak HSA column; format: in vitro ADME
T2 construct: purchased Daicel, Tokyo, Japan H13H-2433
Description: Human serum albumin (HSA) binding of the CCK-2R-targeted compounds was determined as reported by Valko et al., using a Chiralpak HSA column (50 x 3 mm, 5 µm, H13H-2433, Daicel, Tokyo, Japan) at a constant flow rate of 0.5 mL/min at rt. Therefore, an aq. solution of NH4OAc (pH = 6.9, 50 mM) as mobile phase A and isopropanol as mobile phase B were freshly prepared. In order to calibrate the column prior to the experiments, the retention times of nine reference substances with a HSA binding in the range of 13 to 99% were determined using a gradient of 100% A (0 to 3 min), followed by 80% A (3 to 40 min). Furthermore, all substances tested, were dissolved in a mixture (1/1, v/v) of A and B reaching a final concentration of 0.5 mg/mL. The HSA binding of all rhCCK ligands tested, was determined using the same gradient as for the calibration probes. The non-linear regression of the calibration experiments and the CCK-2R ligands (Fig. 29) was established using the OriginPro 2016G software (Northampton, United States).

[3] = Biodistribution in AR4-2J tumor-bearing CB17-SCID mice; format: in vivo; details: female, CB17-SCID, mouse, in vivo, iv, 100 pmol, total radioactivity
Description: All animal experiments were conducted in accordance with general animal welfare regulations in Germany (German animal protection act, in the edition of the announcement, dated May 18th, 2006, as amended by Article 280 of June 19th 2020, approval no. ROB-55.2-1-2532.Vet_02-18-109 by the General Administration of Upper Bavaria) and the institutional guidelines for the care and use of animals. CB17-SCID mice of both genders (Charles River Laboratories International Inc., Sulzfeld, Germany) were let to acclimate at the in-house animal facility at least for one week before inoculation was performed. To establish tumor xenografts, AR4-2J cells (5.0 × 10^6 cells per 200 µL) were suspended in a 1/1 mixture (v/v) of Dulbecco modified Eagle medium / Nutrition Mixture F-12 with Glutamax-I (1/1) and Cultrex® Basement Membrane Matrix Type 3 (Trevigen, Gaithersburg, MD, USA) and inoculated subcutaneously onto the right shoulder of 6-10 weeks old CB17-SCID mice (Charles River, Sulzfeld, Germany). Mice were used for experiments when tumors had grown to a volume of 150-300 mm^3 (1-2 weeks after inoculation). Exclusion criteria for animals from an experiment were either a weight loss higher than 20%, a tumor size above 1,500 mm^3, an ulceration of the tumor, a respiratory distress or a change of behavior. None of these criteria applied to any animal from the experiment. Neither randomization nor blinding was applied in the allocation of the experiments. Health status is SPF according to FELASA.
Approximately 1-5 MBq (100 pmol) of the radiolabeled minigastrin analogues were injected into the tail vein of AR4-2J tumor-bearing female CB17-SCID mice and sacrificed at 1 to 24 h post injection (n = 4-5). Selected organs were removed, weighted and measured in a γ-counter.

[4] = n-Octanol-PBS distribution coefficient (logD7.4); format: physicochemical; details: pH = 7.4, ^177Lu-labeled
Description: Approximately 1 MBq of the labeled tracer was dissolved in 1 mL of a 1/1 mixture (v/v) of phosphate buffered saline (PBS, pH = 7.4) and n-octanol in an Eppendorf tube (1.5 mL). After vigorous mixing of the suspension for 3 min at rt, the vial was centrifuged at 9,000 rpm for 5 min (Biofuge 15, Heraeus Sepatech, Osterode, Germany) and 200 µL aliquots of both layers were measured in a γ-counter. The experiment was repeated at least five times.

CCK-2R [5] = experiment: Competition studies in AR4-2J tumor-bearing CB17-SCID mice; format: in vivo; details: co-administration of excess unlabeled competitor (40 nmol), 24 h p.i.
Description: For competition studies, the radiolabeled compound (approx. 1-5 MBq, 100 pmol) was co-injected with [^natLu]Lu-DOTA-MGS5 (40 nmol) into the tail vein of AR4-2J tumor-bearing CB17-SCID mice and sacrificed at 1 to 24 h post injection (n = 2). Selected organs were removed, weighted and measured in a γ-counter.

[6] = read-out: IC50 [nM] (n = 3), ^natLu-labeled, ^natLu-labeled
[7] = Tab. 8, metal not stated (Fig. 18: ^natLu)
[8] = ^natLu-labeled, read-out: IC50 [nM] (n = 3), ^natLu-labeled

T2 sequence (P02768 25-609): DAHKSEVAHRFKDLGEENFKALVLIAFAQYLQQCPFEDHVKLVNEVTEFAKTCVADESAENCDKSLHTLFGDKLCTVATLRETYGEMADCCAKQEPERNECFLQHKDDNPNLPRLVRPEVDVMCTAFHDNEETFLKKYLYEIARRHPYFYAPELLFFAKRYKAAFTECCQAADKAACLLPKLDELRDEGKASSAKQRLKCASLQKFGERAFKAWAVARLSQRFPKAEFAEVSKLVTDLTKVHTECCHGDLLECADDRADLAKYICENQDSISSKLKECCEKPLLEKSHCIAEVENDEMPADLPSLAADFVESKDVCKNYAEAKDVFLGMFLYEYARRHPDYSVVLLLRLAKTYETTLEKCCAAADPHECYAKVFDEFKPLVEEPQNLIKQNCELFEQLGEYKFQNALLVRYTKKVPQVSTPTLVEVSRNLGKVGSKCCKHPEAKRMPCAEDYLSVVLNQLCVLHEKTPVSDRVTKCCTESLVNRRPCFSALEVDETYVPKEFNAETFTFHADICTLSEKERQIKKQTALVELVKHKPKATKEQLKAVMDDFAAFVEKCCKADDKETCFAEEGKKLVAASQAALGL

SMILES | logD7.4 (n ≥ 5), ^177Lu-labeled [4] | IC50 (CCK-2R [1]; [6]) | HSA binding [%] [2, 7] | IC50 (CCK-2R [1]; [8]) | other results
CCCC[C@@H](C(=O)N[C@@H](CC(=O)O)C(=O)N[C@@H](Cc1cccc2ccccc12)C(N)=O)N(C)C(=O)[C@H](Cc1c[nH]c2ccccc12)NC(=O)CNC(=O)[C@H](Cc1ccc(O)cc1)NC(=O)[C@H](C)NC(=O)[C@@H](CCC(=O)O)NC(=O)CN1CCN(CC(=O)O)CCN(CC(=O)O)CCN(CC(=O)O)CC1 [DOTA-MGS5, DOTA-glu^6-Ala^7-Tyr^8-Gly^9-Trp^10-(N-Me)Nle^11-Asp^12-1-Nal^13-NH2, reference compound] | – | – | – | – | IC50 (CCK-2R [1]; ^natCu-labeled, read-out: IC50 [nM] (n = 3), ^natCu-labeled): 3.9 ± 1 nM; IC50 (CCK-2R [1]; ^natGa-labeled, read-out: IC50 [nM] (n = 3), ^natGa-labeled): 3.6 ± 0.4 nM; HSA binding [%] [2]: 87.6%; HSA binding [%], ^natCu-labeled [2]: 87.6%; HSA binding [%], ^natGa-labeled [2]: 82.0%; HSA binding [%], ^natLu-labeled [2]: 91.9%; tissue to tissue ratio at 24 h [3]: 1480 ± 329; tissue uptake at 24 h [3]: 11 ± 1.15 %ID/g
CCCC[C@@H](C(=O)N[C@@H](CC(=O)O)C(=O)N[C@@H](Cc1cccc2ccccc12)C(N)=O)N(C)C(=O)[C@H](Cc1c[nH]c2ccccc12)NC(=O)CCOCCOCCOCCOCCNC(=O)CC[C@@H](NC(=O)[C@@H]1C[C@@H](O)CN1C(=O)[C@@H]1C[C@@H](O)CN1C(=O)[C@@H]1C[C@@H](O)CN1C(=O)[C@@H](CCCNC(N)=O)NC(=O)[C@@H](CCCNC(N)=O)NC(=O)[C@@H](CCCNC(N)=O)NC(=O)CC[C@@H](NC(=O)[C@@H](CNC(=O)c1ccc([Si](F)(C(C)(C)C)C(C)(C)C)cc1)NC(=O)CN1CCN(CC(=O)O)CCN(CC(=O)O)CCN(CC(=O)O)CC1)C(=O)O)C(=O)O [DOTA-rhCCK-85, DOTA-dap(SiFA)-γ-glu-(cit)3-(Hyp)3-γ-glu-(PEG)3-Trp-(N-Me)Nle-Asp-1-Nal-NH2] ({DOTA}-[dDap](Benzoyl(4-SiFtBu2))[d(γGlu)][dCit][dCit][dCit][Hyp][Hyp][Hyp][d(γGlu)][PEG4]W[NMeNle]D[1Nal]-NH2) | −1.95 ± 0.09 | 12.9 ± 0.3 nM | 90.3% | – | –
CCCC[C@@H](C(=O)N[C@@H](CC(=O)O)C(=O)N[C@@H](Cc1cccc2ccccc12)C(N)=O)N(C)C(=O)[C@H](Cc1c[nH]c2ccccc12)NC(=O)CCOCCOCCOCCOCCNC(=O)CC[C@@H](NC(=O)[C@@H]1C[C@@H](O)CN1C(=O)[C@@H]1C[C@@H](O)CN1C(=O)[C@@H]1C[C@@H](O)CN1C(=O)[C@@H]1C[C@@H](O)CN1C(=O)[C@@H]1C[C@@H](O)CN1C(=O)[C@@H]1C[C@@H](O)CN1C(=O)[C@@H]1C[C@@H](O)CN1C(=O)[C@@H]1C[C@@H](O)CN1C(=O)CC[C@@H](NC(=O)[C@@H](CNC(=O)c1ccc([Si](F)(C(C)(C)C)C(C)(C)C)cc1)NC(=O)CN1CCN(CC(=O)O)CCN(CC(=O)O)CCN(CC(=O)O)CC1)C(=O)O)C(=O)O [DOTA-rhCCK-86, DOTA-dap(SiFA)-γ-glu-(Hyp)8-γ-glu-(PEG)3-Trp-(N-Me)Nle-Asp-1-Nal-NH2] ({DOTA}-[dDap](Benzoyl(4-SiFtBu2))[d(γGlu)][Hyp][Hyp][Hyp][Hyp][Hyp][Hyp][Hyp][Hyp][d(γGlu)][PEG4]W[NMeNle]D[1Nal]-NH2) | −1.86 ± 0.06 | 10 ± 1.4 nM | 88.1% | – | –
CCCC[C@@H](C(=O)N[C@@H](CC(=O)O)C(=O)N[C@@H](Cc1cccc2ccccc12)C(N)=O)N(C)C(=O)[C@H](Cc1c[nH]c2ccccc12)NC(=O)CCOCCOCCOCCOCCNC(=O)CC[C@@H](NC(=O)CCOCCOCCOCCOCCOCCNC(=O)[C@@H](CNC(=O)C[N+](C)(C)Cc1ccc([Si](F)(C(C)(C)C)C(C)(C)C)cc1)NC(=O)CN1CCN(CC(=O)O)CCN(CC(=O)O)CCN(CC(=O)O)CC1)C(=O)O [DOTA-rhCCK-90, DOTA-dap(SiFAlin)-(PEG)4-γ-glu-(PEG)3-Trp-(N-Me)Nle-Asp-1-Nal-NH2] ({DOTA}-[dDap](X1)[PEG5][d(γGlu)][PEG4]W[NMeNle]D[1Nal]-NH2) | −0.76 ± 0.09 | – | 94.5% | 9.85 ± 1 nM | –
CCCC[C@@H](C(=O)N[C@@H](CC(=O)O)C(=O)N[C@@H](Cc1cccc2ccccc12)C(N)=O)N(C)C(=O)[C@H](Cc1c[nH]c2ccccc12)NC(=O)CCOCCOCCOCCOCCNC(=O)CC[C@@H](NC(=O)CCOCCOCCOCCOCCOCCNC(=O)CC[C@@H](NC(=O)[C@@H](CNC(=O)C[N+](C)(C)Cc1ccc([Si](F)(C(C)(C)C)C(C)(C)C)cc1)NC(=O)CN1CCN(CC(=O)O)CCN(CC(=O)O)CCN(CC(=O)O)CC1)C(=O)O)C(=O)O [DOTA-rhCCK-91, DOTA-dap(SiFAlin)-γ-glu-(PEG)4-γ-glu-(PEG)3-Trp-(N-Me)Nle-Asp-1-Nal-NH2] | −1.66 ± 0.08 | – | 90.0% | 8.56 ± 0.7 nM | IC50 (CCK-2R [1]; read-out: IC50 [nM] (n = 3), ^natGa-labeled, ^natGa-labeled): 8.24 ± 1.6 nM
CCCC[C@H](NC(=O)[C@H](Cc1c[nH]c2ccccc12)NC(=O)CNC(=O)[C@H](Cc1ccc(O)cc1)NC(=O)[C@H](C)NC(=O)CC[C@@H](NC(=O)CC[C@@H](NC(=O)CC[C@@H](NC(=O)CC[C@@H](NC(=O)CC[C@@H](NC(=O)CC[C@@H](NC(=O)[C@@H](CNC(=O)c1ccc([Si](F)(C(C)(C)C)C(C)(C)C)cc1)NC(=O)CCC(C(=O)O)N1CCN(CC(=O)O)CCN(CC(=O)O)CCN(CC(=O)O)CC1)C(=O)O)C(=O)O)C(=O)O)C(=O)O)C(=O)O)C(=O)O)C(=O)N[C@@H](CC(=O)O)C(=O)N[C@@H](Cc1ccccc1)C(N)=O (some centres unmarked) [DOTAGA-MG-SiFA-19, DOTAGA-dap(SiFA)-γ-F11N] | −2.54 ± 0.05 | – | – | – | activity levels in stomach and tumor in competition studies (CCK-2R specificity) (CCK-2R [5]): specific
